Assay [1] addresses T1, KIR2DL1 (Fc, R&D system 1844-KR-050) (UniProt P43626 22-245).
T1 construct: Bought Fc-tagged protein
The experiment in a line: flow cytometry, tagged protein on scFv-K562 cells. In general terms: Flow cytometry measures light scatter and fluorescence of single cells or particles in a stream.

Assay [2] deals with CD16b (Fc, R&D system 1597-FC-050) (UniProt O75015 17-200, limits assumed). The experiment in a line: flow cytometry, tagged protein on scFv-K562 cells.
Assay [3] has as its target T2, LILRB2 (His, R&D system 8429-T4-050) (UniProt Q8N423 22-458).
T2 construct: Bought His-tagged protein
Description: flow cytometry, tagged protein on scFv-K562 cells.

For assay [4], the target named is T3, KIR2DL4 (Fc, R&D system 2238-KR-050) (UniProt Q99706 24-242, limits assumed).
T3 construct: Bought Fc-tagged protein
Description: flow cytometry, tagged protein on scFv-K562 cells.

Assay [5] has as its target T4, KIR3DL3 (Fc, R&D system 10104-KR-050) (UniProt Q8N743 26-322, limits assumed).
T4 construct: Bought Fc-tagged protein
The experiment in a line: flow cytometry, tagged protein on scFv-K562 cells.

Assay [6] deals with T5, NKp44 (Fc, R&D system 2249-NK-050) (UniProt O95944 22-190, limits assumed).
T5 construct: Bought Fc-tagged protein
T5 sequence (looked up): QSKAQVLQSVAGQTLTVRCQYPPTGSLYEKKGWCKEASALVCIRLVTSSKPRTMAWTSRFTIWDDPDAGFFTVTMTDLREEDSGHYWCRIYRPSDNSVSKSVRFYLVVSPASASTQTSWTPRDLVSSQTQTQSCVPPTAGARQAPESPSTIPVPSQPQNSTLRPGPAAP
The experiment in a line: flow cytometry, tagged protein on scFv-K562 cells.

In assay [7] the target is T6, KIR2DL5 (Fc, R&D system 6634-KR-050) (UniProt Q8N109 22-238, limits assumed).
T6 construct: Bought Fc-tagged protein
Description: flow cytometry, tagged protein on scFv-K562 cells.

For assay [8], the target named is T7, LILRB1 (Fc, R&D system 2017-T2-050) (UniProt Q8NHL6 24-458).
T7 construct: Bought Fc-tagged protein
Description: flow cytometry, tagged protein on scFv-K562 cells.

The target in assay [9] is T8, TIGIT (Fc, R&D system 9464-TG-050) (UniProt Q495A1 22-141).
T8 construct: Bought Fc-tagged protein
T8 sequence (looked up): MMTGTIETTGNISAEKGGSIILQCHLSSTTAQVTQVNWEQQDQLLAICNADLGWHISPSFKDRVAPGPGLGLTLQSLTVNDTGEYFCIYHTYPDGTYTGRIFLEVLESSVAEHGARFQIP
Description: flow cytometry, tagged protein on scFv-K562 cells.

The target in assay [10] is T9, NKG2A (Fc, R&D system 10511-NK-050) (UniProt P26715 94-233, limits assumed).
T9 construct: Bought Fc-tagged protein
Description: flow cytometry, tagged protein on scFv-K562 cells.

Assay [11] deals with KIR2DS3 (Fc, prepared in-house) (UniProt Q14952 22-245, limits assumed). The experiment in a line: flow cytometry, tagged protein on scFv-K562 cells.
The target in assay [12] is T10, CD32b/c (Fc, R&D system 1875-CD-050) (UniProt P31994 46-217).
T10 sequence (looked up): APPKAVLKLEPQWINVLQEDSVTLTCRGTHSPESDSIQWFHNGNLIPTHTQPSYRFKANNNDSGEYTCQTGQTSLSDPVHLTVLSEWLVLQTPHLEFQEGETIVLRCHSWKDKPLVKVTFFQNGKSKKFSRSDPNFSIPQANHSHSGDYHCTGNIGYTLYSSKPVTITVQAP
The experiment in a line: flow cytometry, tagged protein on scFv-K562 cells.

Assay [13] deals with T11, NKp46 (Fc, R&D system 1850-NK-025) (UniProt O76036 22-258, limits assumed).
T11 construct: Bought Fc-tagged protein
The experiment in a line: flow cytometry, tagged protein on scFv-K562 cells.

Assay [14] addresses T12, CD32a (Fc, R&D system 1330-CD-050) (UniProt P12318 36-218).
T12 sequence (looked up): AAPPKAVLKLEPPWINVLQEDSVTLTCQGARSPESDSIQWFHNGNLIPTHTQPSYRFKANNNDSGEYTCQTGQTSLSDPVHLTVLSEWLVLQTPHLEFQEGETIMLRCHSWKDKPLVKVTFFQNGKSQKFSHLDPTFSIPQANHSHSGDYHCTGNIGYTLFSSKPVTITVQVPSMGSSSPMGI
The experiment in a line: flow cytometry, tagged protein on scFv-K562 cells.

For assay [15], the target named is T13, NKG2D (Fc, R&D system 1299-NK-050) (UniProt P26718 78-216).
T13 construct: Bought Fc-tagged protein
T13 sequence (looked up): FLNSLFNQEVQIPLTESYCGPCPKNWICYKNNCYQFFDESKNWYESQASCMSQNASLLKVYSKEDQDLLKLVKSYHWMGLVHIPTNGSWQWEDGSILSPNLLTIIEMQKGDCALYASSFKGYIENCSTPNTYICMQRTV
The experiment in a line: flow cytometry, tagged protein on scFv-K562 cells.

Assay [16] concerns the target CD16a (Fc, R&D system 4325-FC-050) (UniProt P08637 17-208). Description: flow cytometry, tagged protein on scFv-K562 cells.
The target of assay [17] is CD64 (Fc, R&D system 1257-FC-050) (UniProt P12314 16-288). Description: flow cytometry, tagged protein on scFv-K562 cells.
For assay [18], the target named is T14, NKG2C (Fc, R&D system 138-NK-050) (UniProt P26717 94-231, limits assumed).
T14 construct: Bought Fc-tagged protein
Description: flow cytometry, tagged protein on scFv-K562 cells.

The target of assay [19] is T15, recombinant human KIR3DS1/CD158e2 Fc chimera protein (4136-KR-050, R&D Systems) (human, UniProt Q14943 22-340, limits assumed).
T15 construct: Bought Fc chimera; also called soluble KIR3DS1; recombinant KIR3DS1
The experiment in a line: flow cytometry, tagged protein on scFv-K562 cells.

The target in assay [20] is T16, NKp30 (Fc, R&D system 1849-NK-025) (UniProt O14931 19-138, limits assumed).
T16 construct: Bought Fc-tagged protein
T16 sequence (looked up): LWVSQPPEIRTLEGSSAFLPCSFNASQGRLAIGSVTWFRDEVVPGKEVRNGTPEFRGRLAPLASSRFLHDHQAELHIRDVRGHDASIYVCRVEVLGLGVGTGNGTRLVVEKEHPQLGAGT
The experiment in a line: flow cytometry, tagged protein on scFv-K562 cells.

Assay [21] deals with T17, CD161 (Fc, R&D system 7448-CD-050) (UniProt Q12918 67-225).
T17 construct: Bought Fc-tagged protein
The experiment in a line: flow cytometry, tagged protein on scFv-K562 cells.

In assay [22] the target is T18, KIR3DL1 (Fc, R&D system 1225-KR-050) (UniProt P43629 22-340).
T18 construct: Bought Fc-tagged protein
Description: flow cytometry, tagged protein on scFv-K562 cells.

Assay [23] addresses T19, NKG2E (Fc, R&D system 9759-NK-050) (UniProt Q07444 94-240, limits assumed).
T19 construct: Bought Fc-tagged protein
Description: flow cytometry, tagged protein on scFv-K562 cells.

The target in assay [24] is T20, recombinant KIR2DS1 (extracellular domain-Fc-Avi, in-house) (human).
T20 construct: In-house; IL-2 signal peptide left out; also called soluble KIR2DS1
Description: flow cytometry, KIR-Fc on scFv-K562 cells.

Assay [25] concerns the target T21, recombinant KIR2DS2 (extracellular domain-Fc-Avi, in-house) (human).
T21 construct: In-house; IL-2 signal peptide left out; also called soluble KIR2DS2
The experiment in a line: flow cytometry, KIR-Fc on scFv-K562 cells.

The target of assay [26] is T22, recombinant KIR2DS4 (extracellular domain-Fc-Avi, in-house) (human).
T22 construct: In-house; IL-2 signal peptide left out; also called soluble KIR2DS4
Description: flow cytometry, KIR-Fc on scFv-K562 cells.

The target in assay [27] is T23, recombinant KIR3DL1 (extracellular domain-Fc-Avi, in-house) (human).
T23 construct: IL-2 signal peptide left out; also called soluble KIR3DL1
The experiment in a line: flow cytometry, KIR-Fc 0.1 µM on scFv-K562 cells.

In assay [28] the target is T15, recombinant human KIR3DS1/CD158e2 Fc …. The experiment in a line: flow cytometry, KIR-Fc on scFv-K562 cells.
Assay [29] concerns the target T24, KIR2DL2 (22-225)-His, deglycosylated (human, UniProt P43627 22-225).
T24 construct: IL-2 signal peptide left out; treated with Protein Deglycosylation Mix II; also called recombinant KIR2DL2
Description: size exclusion chromatography of the mixed proteins; complex then crystallised. (Size exclusion chromatography separates by hydrodynamic size, large species first.)

T15 sequence (Q14943 22-340 limits assumed, change not shown): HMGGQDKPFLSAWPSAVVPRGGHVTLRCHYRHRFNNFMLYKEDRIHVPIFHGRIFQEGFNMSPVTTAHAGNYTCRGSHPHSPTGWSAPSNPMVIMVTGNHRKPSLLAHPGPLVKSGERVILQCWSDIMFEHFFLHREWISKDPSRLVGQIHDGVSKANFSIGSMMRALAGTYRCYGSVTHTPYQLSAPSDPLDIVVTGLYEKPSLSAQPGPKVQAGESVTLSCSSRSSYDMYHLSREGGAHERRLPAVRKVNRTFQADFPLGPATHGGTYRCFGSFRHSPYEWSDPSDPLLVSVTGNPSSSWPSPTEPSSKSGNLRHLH
T21 sequence (chain, as listed by the source): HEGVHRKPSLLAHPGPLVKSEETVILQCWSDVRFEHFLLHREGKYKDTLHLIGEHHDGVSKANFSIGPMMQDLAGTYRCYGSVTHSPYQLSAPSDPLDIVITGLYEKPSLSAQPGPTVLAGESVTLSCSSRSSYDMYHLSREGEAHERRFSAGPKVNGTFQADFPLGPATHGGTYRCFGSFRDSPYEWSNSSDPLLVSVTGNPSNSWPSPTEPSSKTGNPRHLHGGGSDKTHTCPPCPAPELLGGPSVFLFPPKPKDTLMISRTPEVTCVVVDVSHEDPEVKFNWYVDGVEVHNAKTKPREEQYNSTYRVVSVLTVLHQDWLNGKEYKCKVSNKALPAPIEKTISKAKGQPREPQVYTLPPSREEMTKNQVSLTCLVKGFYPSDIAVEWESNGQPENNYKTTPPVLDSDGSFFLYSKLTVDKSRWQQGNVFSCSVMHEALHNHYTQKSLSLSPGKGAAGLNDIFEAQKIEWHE
T2 sequence (Q8N423 22-458 limits assumed): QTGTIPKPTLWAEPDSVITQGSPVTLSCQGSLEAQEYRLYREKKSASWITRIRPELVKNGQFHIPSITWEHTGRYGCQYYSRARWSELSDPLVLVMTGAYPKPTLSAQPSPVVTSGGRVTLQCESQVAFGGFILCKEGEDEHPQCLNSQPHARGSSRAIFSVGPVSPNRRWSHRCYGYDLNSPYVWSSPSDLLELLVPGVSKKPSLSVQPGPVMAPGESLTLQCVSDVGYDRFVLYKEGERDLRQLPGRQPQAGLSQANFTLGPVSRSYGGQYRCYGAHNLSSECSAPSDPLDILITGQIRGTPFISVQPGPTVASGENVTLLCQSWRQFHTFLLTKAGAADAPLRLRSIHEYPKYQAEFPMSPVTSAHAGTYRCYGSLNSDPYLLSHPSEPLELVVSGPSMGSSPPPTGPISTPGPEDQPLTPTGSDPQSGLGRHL
Sequence of CD64 (Fc, R&D system 1257-FC-050) (P12314 16-288 limits assumed): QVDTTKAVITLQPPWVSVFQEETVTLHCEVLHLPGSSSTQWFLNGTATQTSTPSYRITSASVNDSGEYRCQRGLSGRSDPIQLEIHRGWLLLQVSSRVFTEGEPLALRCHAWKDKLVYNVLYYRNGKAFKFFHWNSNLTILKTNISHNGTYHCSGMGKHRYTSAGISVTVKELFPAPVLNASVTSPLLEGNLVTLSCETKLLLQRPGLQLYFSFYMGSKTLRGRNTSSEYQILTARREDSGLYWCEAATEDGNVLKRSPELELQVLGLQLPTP
T18 sequence (P43629 22-340 limits assumed): as the sequence (Q14943 22-340 limits assumed, change not shown) above, with V47I, G58S, M92V, R136K, W138G, S163P, R166L, L199P, L315P counted along it
T11 sequence (O76036 22-258 limits assumed): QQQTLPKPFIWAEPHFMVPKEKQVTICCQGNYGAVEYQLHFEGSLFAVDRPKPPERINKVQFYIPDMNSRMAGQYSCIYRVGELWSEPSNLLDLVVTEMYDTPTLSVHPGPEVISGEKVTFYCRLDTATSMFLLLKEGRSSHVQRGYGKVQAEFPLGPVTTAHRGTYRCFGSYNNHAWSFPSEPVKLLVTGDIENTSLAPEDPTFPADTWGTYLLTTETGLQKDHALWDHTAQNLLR
T23 sequence (chain, as listed by the source): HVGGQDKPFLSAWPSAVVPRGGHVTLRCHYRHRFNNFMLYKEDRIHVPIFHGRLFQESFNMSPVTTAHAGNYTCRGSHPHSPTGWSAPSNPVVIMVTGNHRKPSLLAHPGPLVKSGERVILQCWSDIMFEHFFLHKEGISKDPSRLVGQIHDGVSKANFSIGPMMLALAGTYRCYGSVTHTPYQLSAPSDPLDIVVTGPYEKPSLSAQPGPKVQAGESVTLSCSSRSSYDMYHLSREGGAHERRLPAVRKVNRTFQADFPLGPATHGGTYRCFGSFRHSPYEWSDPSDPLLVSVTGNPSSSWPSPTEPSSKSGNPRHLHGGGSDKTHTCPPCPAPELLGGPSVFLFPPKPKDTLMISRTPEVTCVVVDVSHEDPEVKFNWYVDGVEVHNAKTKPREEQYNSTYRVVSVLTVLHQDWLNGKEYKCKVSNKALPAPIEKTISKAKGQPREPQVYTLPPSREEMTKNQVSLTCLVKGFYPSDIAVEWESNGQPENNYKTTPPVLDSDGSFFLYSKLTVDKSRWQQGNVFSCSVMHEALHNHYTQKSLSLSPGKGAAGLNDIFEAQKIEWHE
T1 sequence (P43626 22-245 limits assumed): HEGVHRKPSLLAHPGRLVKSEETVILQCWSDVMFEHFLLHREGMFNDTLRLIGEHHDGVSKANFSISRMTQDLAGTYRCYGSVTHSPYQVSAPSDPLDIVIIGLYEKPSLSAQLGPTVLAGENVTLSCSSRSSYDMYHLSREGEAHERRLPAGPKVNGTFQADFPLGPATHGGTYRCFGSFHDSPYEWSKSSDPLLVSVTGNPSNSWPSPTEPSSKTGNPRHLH
T3 sequence (Q99706 24-242 limits assumed): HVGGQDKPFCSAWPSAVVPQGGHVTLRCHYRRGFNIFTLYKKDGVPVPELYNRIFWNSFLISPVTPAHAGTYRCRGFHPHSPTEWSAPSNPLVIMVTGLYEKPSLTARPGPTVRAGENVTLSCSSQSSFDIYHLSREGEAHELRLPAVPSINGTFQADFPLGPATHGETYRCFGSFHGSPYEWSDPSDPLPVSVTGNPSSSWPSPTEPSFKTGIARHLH
T7 sequence (Q8NHL6 24-458 limits assumed): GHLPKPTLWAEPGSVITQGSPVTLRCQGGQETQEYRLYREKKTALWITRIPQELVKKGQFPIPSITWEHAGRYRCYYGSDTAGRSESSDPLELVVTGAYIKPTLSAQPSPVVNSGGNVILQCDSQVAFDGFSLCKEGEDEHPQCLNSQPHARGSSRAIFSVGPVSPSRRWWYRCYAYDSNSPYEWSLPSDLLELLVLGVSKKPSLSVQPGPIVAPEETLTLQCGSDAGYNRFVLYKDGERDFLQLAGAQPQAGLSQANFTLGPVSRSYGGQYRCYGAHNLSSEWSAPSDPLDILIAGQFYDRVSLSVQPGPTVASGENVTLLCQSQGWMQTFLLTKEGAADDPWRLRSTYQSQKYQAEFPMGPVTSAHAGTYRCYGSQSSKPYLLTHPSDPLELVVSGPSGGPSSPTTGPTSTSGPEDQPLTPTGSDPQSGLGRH
T19 sequence (Q07444 94-240 limits assumed): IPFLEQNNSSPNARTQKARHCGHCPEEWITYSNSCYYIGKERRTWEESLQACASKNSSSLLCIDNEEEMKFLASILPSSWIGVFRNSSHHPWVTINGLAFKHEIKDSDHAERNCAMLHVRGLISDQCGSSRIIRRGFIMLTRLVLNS
T9 sequence (P26715 94-233 limits assumed): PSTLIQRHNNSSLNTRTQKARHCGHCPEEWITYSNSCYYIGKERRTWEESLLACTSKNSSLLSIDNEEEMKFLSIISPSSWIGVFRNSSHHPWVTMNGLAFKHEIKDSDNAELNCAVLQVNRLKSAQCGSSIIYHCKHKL
T4 sequence (Q8N743 26-322 limits assumed): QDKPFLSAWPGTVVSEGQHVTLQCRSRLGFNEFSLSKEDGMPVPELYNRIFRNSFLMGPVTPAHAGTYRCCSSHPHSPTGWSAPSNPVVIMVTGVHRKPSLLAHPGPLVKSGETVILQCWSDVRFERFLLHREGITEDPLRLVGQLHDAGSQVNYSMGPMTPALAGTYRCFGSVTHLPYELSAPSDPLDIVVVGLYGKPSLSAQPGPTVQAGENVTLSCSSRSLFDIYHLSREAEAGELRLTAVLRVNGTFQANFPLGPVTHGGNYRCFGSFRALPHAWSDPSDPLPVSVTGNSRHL
Sequence of CD16a (Fc, R&D system 4325-FC-050) (P08637 17-208 limits assumed): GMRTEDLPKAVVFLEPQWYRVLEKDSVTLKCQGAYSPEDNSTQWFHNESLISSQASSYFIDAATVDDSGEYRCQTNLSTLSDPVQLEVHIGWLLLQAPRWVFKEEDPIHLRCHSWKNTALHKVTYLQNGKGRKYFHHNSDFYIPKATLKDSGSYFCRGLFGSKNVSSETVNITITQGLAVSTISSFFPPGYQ
T22 sequence (chain, as listed by the source): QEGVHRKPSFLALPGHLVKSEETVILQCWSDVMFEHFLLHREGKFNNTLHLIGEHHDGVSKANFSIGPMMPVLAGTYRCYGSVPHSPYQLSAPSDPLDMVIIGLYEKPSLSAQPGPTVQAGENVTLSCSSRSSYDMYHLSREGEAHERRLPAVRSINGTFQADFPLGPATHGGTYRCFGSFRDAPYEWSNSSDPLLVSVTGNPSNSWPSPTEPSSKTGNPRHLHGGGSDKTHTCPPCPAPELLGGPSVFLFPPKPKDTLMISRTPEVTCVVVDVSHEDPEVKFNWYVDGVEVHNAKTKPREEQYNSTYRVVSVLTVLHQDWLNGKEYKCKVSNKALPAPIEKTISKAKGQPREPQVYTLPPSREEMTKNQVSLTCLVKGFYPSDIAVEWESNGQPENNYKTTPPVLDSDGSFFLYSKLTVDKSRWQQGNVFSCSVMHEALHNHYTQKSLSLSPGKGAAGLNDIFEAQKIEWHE
T24 sequence (P43627 other isoform, or with tags, fused parts or gaps): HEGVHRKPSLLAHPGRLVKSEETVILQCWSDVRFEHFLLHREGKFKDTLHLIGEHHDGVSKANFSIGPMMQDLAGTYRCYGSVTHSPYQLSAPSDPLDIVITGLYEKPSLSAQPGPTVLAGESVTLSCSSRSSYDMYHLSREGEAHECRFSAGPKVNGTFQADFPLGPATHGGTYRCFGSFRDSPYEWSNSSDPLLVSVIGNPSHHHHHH
T14 sequence (P26717 94-231 limits assumed): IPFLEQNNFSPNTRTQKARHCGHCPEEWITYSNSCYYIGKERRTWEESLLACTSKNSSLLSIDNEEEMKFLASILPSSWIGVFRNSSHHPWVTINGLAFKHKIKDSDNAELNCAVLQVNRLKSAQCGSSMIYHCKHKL

B1: membrane-type a2DL2/3-DS10 scFv (scFv)
scFv: DYKDDDDKGSGQVQLVQSGAEVKKPGSSVKVSCKASGGTFSSFAISWVRQAPGQGLEWMGGIIPIFGTANYAQKFQGRVTITADESTSTAYMELSSLRSEDTAVYYCARVSGTTGGYYYGMDVWGQGTLVTVSSGGGGSGGGGSGGGGSAIRMTQSPSSVSASVGDRVTITCRASQGIGNWLAWYQQKPGRAPKLLISTASSLQSGVPSRFSGGGSGRGFTLTISSLQLEDFATYYCQQSYITPWTFGQGTKVEIKALSNSIMYFSHFVPVFLPAKPTTTPAPRPPTPAPTIASQPLSLRPEACRPAAGGAVHTRGLDFACDIYIWAPLAGTCGVLLLSLVITLYCNH
notes: On K562 cells; also called a2DL2/3-DS10 WT scFv
For B1, the binding result in [1], in assay [2], in assay [3], in assay [4], in [5] and in assay [6] was “no binding (tested: 0.1 µM)” each time. The binding result in [7], in assay [8], in assay [9], in assay [10], in [11] and in [12] was “no binding (tested: 0.1 µM)” throughout. Moreover, the binding result in [13], in assay [14], in [15], in assay [16], in [17] and in assay [18] was “no binding (tested: 0.1 µM)” in each case. Moreover, the binding result in assay [19], in [20], in assay [21], in [22], in assay [23] and in assay [24] was “no binding (tested: 0.1 µM)” each time. Also, the binding result in assay [25] and in assay [26] was “no binding (tested: 0.1 µM)” each time.

B2: membrane-type a3DL1-DS6 scFv (scFv)
scFv: DYKDDDDKGSGQMQLVQSGAEVKKPGESLKISCKGSGYSFTSYWIGWVRQMPGKGPEWMGIIYPGDSYTNYSPSFQGHVTISADKSISTAYLQWSSLKASDTAMYYCARLAPTVEDAFDIWGQGTLVTVSSGGGGSGGGGSGGGGSQSVLTQPPSVSEAPGQRVTISCTGSSSNIGAGYDVHWYQQLPGTAPKLLIYGNSNRPSGVPDRFSGSKSGTSASLAITGLQAEDEADYYCQSYDSSLSEEVFGTGTKVTVLALSNSIMYFSHFVPVFLPAKPTTTPAPRPPTPAPTIASQPLSLRPEACRPAAGGAVHTRGLDFACDIYIWAPLAGTCGVLLLSLVITLYCNH
notes: On K562 cells
As to B2, the binding result in assay [27] is given as “binds”; in [28] it was “no binding (tested: 0.1 µM)”.

B3: Fab fragment of a2DL2/3-DS10 (Fab, V domains shown)
VH: QVQLVQSGAEVKKPGSSVKVSCKASGGTFSSFAISWVRQAPGQGLEWMGGIIPIFGTANYAQKFQGRVTITADESTSTAYMELSSLRSEDTAVYYCARVSGTTGGYYYGMDVWGQGTLVTVSS
VL: AIRMTQSPSSVSASVGDRVTITCRASQGIGNWLAWYQQKPGRAPKLLISTASSLQSGVPSRFSGGGSGRGFTLTISSLQLEDFATYYCQQSYITPWTFGQGTKVEIKV
notes: Signal peptides left out; also called a2DL2/3-DS10 Fab; 61_3092_02_F10_Fab
On to B3, for which the binding result in assay [29] is “binds”.

The values are drawn from patent EP4610277A1 (Daiichi Sankyo Company, Limited, dated 2025).
